In the supplement of paper PMC9170038:

Test system: MS2 coat protein
Test: apparent KD of MS2 coat protein; designed switch direction (-1 OFF switch, 1 ON switch): -1; higher = weaker reporter binding
How it was run: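 Designed RNA switches were transcribed on Illumina chips by stalled E. coli RNA polymerase and titrated with SNAP-549-labelled MS2 coat protein from 0.7 or 1.5 nM, doubling to 3 µM. Step length ran from 0.8–1.5 h at the lowest concentration to 10–20 min at the highest. The apparent KD is the median over clusters for each design, from curve-fitted normalised cluster fluorescence.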

[1] = input ligand: microRNA oligo, concentration not stated
[2] = Eterna round: R95, input ligand: FMN 200 uM
[3] = Eterna round: R95, input ligand: microRNA oligo, concentration not stated
[4] = Eterna round: R95, input ligand: none

Sequence	apparent KD of MS2 coat protein [1]	apparent KD of MS2 coat protein (input ligand: FMN 200 uM)	apparent KD of MS2 coat protein (input ligand: none)	apparent KD of MS2 coat protein [2]	apparent KD of MS2 coat protein [3]	apparent KD of MS2 coat protein [4]
AGCUGUGGCCGAGGAUAUCUGACUUCAAUAACCGAAAUAUAAUCGGACAUGAGGAUCACCCAUGUAGAGAAGGCGGUCUCAGCA [Eli eng2 - 083] (Eterna round: R96, puzzle: Exclusion NG 2)	12.5 nM					
ACAAGCUUUACGAUCCUCAACAUGAGGAUCACCCAUGUGCUCGUAUUGUUUAGUACUAUCACGAAAGUGAUAGUACA [Sensor, turn off variant 1 v.6] (Eterna round: R97, puzzle: Sensor, turn-off variant 1)		1430 nM	943 nM			
UAUUAGCAAGCACGAUCCCACAUGAGGAUCACCCAUGUGCUCGUCUUAUAAGGUACUGUGACGAAAGUCACGGUACC [Sensor 3, v1 - 94] (puzzle: Sensor v3, turn-off variant 1)				64.2 nM	847 nM	75.9 nM
AGCGAAUAAGCAGGAUAUGAGAAUAGAUAGAGCUCAGAAGGGCUACAUGAGGAUCACCCAUGUAAAGUCUUGAGGCUGCGUGGU [Prohibition 13 - Jieux - Exclusion NG 1] (Eterna round: R96, puzzle: Exclusion NG 1)	14.4 nM	22.5 nM	18.4 nM			
UAAGUGUCAGGAUAUACAUGAGGAUCACCCAUGUGCCUCGCUACGGCCAGGCUCCCGUGUAGAAGGGAUCGUAA [Eternabot (Original) Solution 23] (Eterna round: R97, puzzle: Exclusion 3)		110 nM	61.8 nM			
ACAUGAGGAUCACCCAUGUAAACAUAAUGGCUCAUGUAGAGUCAGGAUAUGCGUGGCGAACUCGCGCAGAAGGGACAAGACUGG [Deportation 23 - Jieux - Exclusion NG 3] (Eterna round: R96, puzzle: Exclusion NG 3)	20.6 nM	26.7 nM	26.4 nM			
GUUUGCGCAGGAUAUACAUGAGGAUCACCCAUGUGAGAGAAAUAAGUGAGGAAGAAAAGUAGAAGGGCGUGACG [Mat - Exclusion 3 - Mod of Salish D71] (puzzle: Exclusion 3)				171 nM	34 nM	42.8 nM
AUUACGUCAGGAUAUGCGUGUUAGACAUGUUUAACCUAAGAACAUGAGGAUCACCCAUGUAGAAGGGACGCUCA [Eternabot (L1) Solution 78] (Eterna round: R97, puzzle: Exclusion 2)		68.9 nM	64.9 nM			
GCCUUAGGAGUCAGGAUAUACAAUAAAAUAAUUAAGUAGAAGGGACAUGAGGAUCACCCAUGUACAUUACAUUG [alecazam29] (Eterna round: R97, puzzle: Brourd's mod of Exclusion 4)		31 nM	13.6 nM			
AGUAACCGUCACGAAAGUGAUGGUUACACAGGCAAAUGUACAUGAGGAUCACCCAUGUCCUCAAUUGCUCGUCUUAU [Sensor 3 - 53] (puzzle: Sensor v3, turn-off variant 2)				115 nM	181 nM	120 nM
UUAAAACGUGUAGGAUAUGCGUGGCGAAGCUAUGCAGAAGGACAUGAGGAUCACCCAUGUUCCUGCGUCCGCGUACGGAUGCAA [JL Eng1 1.21 mod 2] (Eterna round: R96, puzzle: Exclusion NG 1)	11.9 nM	18 nM	13.1 nM			
GUAAACGAAGAGGAUAUUUGAUAUCAAAGCUUCAAAGAAGGCUUCACAUGAGGAUCACCCAUGUGAUCUUCAAG [Mat - Exclusion 6 - JL Mod - D17] (Eterna round: R97, puzzle: Exclusion 6)		404 nM	28.4 nM			
AAUAACAGAGGAUAUACUAUUUUAUGUGUUUGUUGUUUUGAACAUGAGGAUCACCCAUGUAGAAGGCUGAAUGA [JMF 69] (puzzle: Exclusion 2)					25.3 nM	
UUUUAGAGAGGAUAUACAUUUUUUUAUUUAUUUAUAAUAUUACAUGAGGAUCACCCAUGUAGAAGGCUCAUUUU [My Design] (puzzle: Exclusion 2)					25.8 nM	
ACGAUGACCGAAAAGUGUUAACUGACAUGAGGAUCACCCAUGUAGGAUAUGGCUACGAAAAGUAGUCAGAAGGACAUGUCAUCA [Omei Exc(NG) 3 Av7] (Eterna round: R96, puzzle: Exclusion NG 3)	13.1 nM	17.8 nM	17.5 nM			
GAUUAUGCAAGCUUUUGGGACAUGAGGAUCACCCAUGUUCGUCUUAUUGAUCUAGGUACGCUGACGUACCUAGAUCU [JL-sv1-2.32 Brourd mod] (Eterna round: R96, puzzle: Sensor v3, turn-off variant 1)	52.1 nM	14.8 nM	17.2 nM			
AAAGGGUCAGGAUAUCCUGUGAAGAAGAAGUUGUUGUCGCGGGAGAAGGGACAUGAGGAUCACCCAUGUAGAGC [A Simple Submission] (Eterna round: R97, puzzle: Exclusion 4)		52.9 nM	53.6 nM			

Sequence	apparent KD of MS2 coat protein [1]	apparent KD of MS2 coat protein (input ligand: FMN 200 uM)	apparent KD of MS2 coat protein (input ligand: none)	apparent KD of MS2 coat protein [2]	apparent KD of MS2 coat protein [3]	apparent KD of MS2 coat protein [4]
GCUGGGUCAGGAUAUACGAGAUCGAAAGAUCGAAGAUCCGUACAUGAGGAUCACCCAUGUAGAAGGGACUGGGC [ChP 11-04-2015 #7] (puzzle: Exclusion 2)					19.5 nM	
GGGCCCGGAGGAUAUACAUGAGGAUCACCCAUGUAGGGCUCGGGUAUUCUCGGGCUCUGUAGAAGGCCGGGCCC [-39.6, -36.7 kcal, A 19%, 5,0] (Eterna round: R97, puzzle: Exclusion 3)		17.5 nM	18.6 nM			
AAAUGACAUUAGGAUAUAUAACGCGGCUGCCGCAUAGAAGGGAUGACUUGAGGAUCACCCAAGUGACCCAAGGA [Arcere] (Eterna round: R97, puzzle: Exclusion 6)		28.2 nM	30.8 nM			
GGCGUGUCGCGAGGAUAUUCAAACGGACAUGAGGAUCACCCAUGUGAAAGGAAUGUCGAGGUUAUGGAGAAGGCGUUCACGCCG [Qubizace] (Eterna round: R96, puzzle: Exclusion NG 2)	92 nM	549 nM	153 nM			
AGUUGGCGAGGAUAUACAUGAGGAUCACCCAUGUGAGAGAUACUAGUGAGGUCGAUUGGUAGAAGGCGCUGACG [Mat - Exclusion 3 - Mod of JL D79] (puzzle: Exclusion 3)				222 nM	104 nM	151 nM
UCUCGCGUCGAGGAUAUAUCGUGUAAGUGCGCGAUAGAAGGCGACACAUGAGGAUCACCCAUGUAGGGCCGAAC [Eternabot (Original) Solution 14] (Eterna round: R97, puzzle: Exclusion 6)		149 nM	23.2 nM			
CUAGACCGAGGAUAUAUUAUGUGAAACAUGAGGAUCACCCAUGUAAUAUGAUGGAUGUAAAUAGAAGGCGGUCUAG [Mat - Exclusion 5 - JL mod - D29] (puzzle: Exclusion 5)				31.4 nM	53.4 nM	23 nM
AAUAAUGCAGGAUAUACAUGAGGAUCACCCAUGUGAAUAAAAUAAAUAAAAUGAUAAAGUAGAAGGGCAAAUAA [JMF's solution 1] (puzzle: Exclusion 3)				28 nM	28.8 nM	35.5 nM
CGUAUGUGAGGAUAUGACAAUGGUAUCUUCGGAUACCAUUGUCAGAAGGAACAUGAGGAUCACCCAUGUAGAUC (puzzle: Exclusion 4)					44.8 nM	
CCGCCGCAAGGAUAUACUUGCGGUGAUGUUCGAGUUCUUCUACUUGAGGAUCACCCAAGUAGAAGGUGCAAAAC [jl-ex2.4.59 ViennaUCT mod] (Eterna round: R97, puzzle: Exclusion 2)		13 nM	12.5 nM			
UCACGGGAUUGAGGAUAUAUAUUAAUUUUUACAAUAGAAGGCAAAUUUUUAGUUUUUUCACUUUACAUGAGGAUCACCCAUGUU [JR_ExcBG1_Sub081] (Eterna round: R96, puzzle: Exclusion NG 1)	20.5 nM					
AGCUAGUGCCGAGGAUAUACAUGAGGAUCACCCAUGUAGCCGUGAGGCUUUGUCUCACGGGAUAUGUAGAAGGCGGCGUUGGCA [JL ENG2 1.53] (Eterna round: R96, puzzle: Exclusion NG 2)	11.8 nM	34.1 nM	18.3 nM			
AGCUGUGGCCGAGGAUAUCACGAACCAUGGAAAACCAUGGAACUCAAACAUGAGGAUCACCCAUGUGAGAAGGCGGUCUCAGCA [Eli eng2 - 018] (Eterna round: R96, puzzle: Exclusion NG 2)	15.2 nM					
UUGAAUUAGCAGGAUAUGGGAGUCGAUAGACACCCAGAAGGGCUAACAUGAGGAUCACCCAUGUGUCCUAUCAA [Mod of Eli 22 - Jieux - Exclusion 6] (Eterna round: R97, puzzle: Exclusion 6)		204 nM	33.9 nM			
AGUACUAUCACGAAAGUGUUAGUACAAUAAGCUUGUGAAACAUGAGGAUCACCCAUGUCCUCAUAAGCUCGUCUUAU [salish99_TOv2_r3_019] (puzzle: Sensor v3, turn-off variant 2)				16.9 nM	868 nM	15.7 nM
UUUGAAUAAGUGAGGAUAUACUGUUAGUAAUGAUUGUAGAAGGUACAUGAGGAUCACCCAUGUUUAUUAUUUAU [JR_BME4_Sub039] (puzzle: Brourd's mod of Exclusion 4)					20.7 nM	
AAUUAUUAUUGAGGAUAUCGUAUUGAAACAAUAUGAGAAGGCGGGAUAAACAUGAGGAUCACCCAUGUGAGCCUGAUGCUUGUG [Ex NG1 #40] (Eterna round: R96, puzzle: Exclusion NG 1)	15.3 nM					
